Laboratory results: PMC12373997

B1: D. melanogaster augmin N-clamp with Dgt6^3A-mut (K82A, R88A, K96A) (complex)
chain 1: MSDAVDKMLAGMAANRQTMNRQLAKIDEIMERSNNTLLHIESNSKAFSQNVALSETQKMYNLRPEAEMTLSKILENFKLLMSSSDQREETYSALEGCLAYRHRVEHLGSSVRKLVALYDTVGQMKNSQEEQYASEDSP
chain 2: MDRTIIAPWKAEEKEQSEKLHRKLQGLALVHPLPDELRKLIAWDMFLKPNQVAFVHVMHYLFRLLDPAEFKRRFFWPITDKASEANFASSTVEYLAHLNEKHQLHWANIKSYLVVMPGGMRFINFLLEFVGFVIQELIKQREKSLGLEAGTPNVSAKVMARQNAVMKEYASSYVVNLEENTALLRDKTQKIRRLMADLSADMGVPEEQLADDGFLDEFEATAALGVERVITQPTERKFDLEASLCGLKEAIDLFQVKQAENNQSKEAVEKALRGMRVLFDCDAVTEGDFYDPLGASKMDALLNGFNRISGTIAEQLDANDHYNESNAFVTTDLQALRVELSQSEVQLNNLLKKLNEPSKKDKGSANASGSARVQTLQPATPRFESVISSKFVSTPPIRIDMGGGGGRNAPVRLALQDDFNGKQFDALSNSLLAPAPPRSARKLKALDQSTGIDLNGTLNRSKINDPMQMLRTIHKNTSKVKAAPQANLSSLGSKWKQMQASFGFDEAPVPGAAVISPQTSPTDPSDPFTPLSGSECTRIERIPRTSENNTSLIAKSAAVIKVLEVSRNVLNLSTSPSGRLDALVPHTESHQQDVAPRLQLNDRTINDSLQLDPDFNIENDKNAFNVSHKFDFDQIGGEDDLQNISDSVLKDIIF
chain 3: METNVDFSSISSKLYRKYAQHVRNLKDVCVSKTVMKPGAFFDSLQQMMEEEAAATTPPRDLSSVADYAELFKTLEEYPANLQKMPKKRELQRTNSTLLRGADESVAMGINTSNVSLSLTRLEEQRSAVDVYNDFKGFQRKLAKIYDEAAALDTTESIYKQKLTQLHGFAQQLEKLMPTGGESPPDAFTSEQQEKLLTIAANMEQLNYLRSNSLQLPNPNEILATGSLAARLEMFVEVLTYTLLQVSSYNMAMI
chain 4: METPPTPTTTTPPSLTTEGTMDDIQYLLHLEAMRRFQEDSRNVKRQVEEQVRIWLDAKCEYQRDFGRLARLLKCGALQAAVDAHRVSDVNQVDQAAKDIASLRSKLGSDLRPAILDSNDVKQCLEHLNTTHKPRLNLCRQQREFAQNQEALRSLRTAVDGLENGMEMGMIQAMDRLVEDLLPPRETNN
B2: D. melanogaster augmin N-clamp with Msd5^Δ81–93 (loop deletion) (complex)
chain 1: MSDAVDKMLAGMAANRQTMNRQLAKIDEIMERSNNTLLHIESNSKAFSQNVALSETQKMYNLRPEAEMTLSKILENFKLLMSSSDQREETYSALEGCLAYRHRVEHLGSSVRKLVALYDTVGQMKNSQEEQYASEDSP
chain 2: MDRTIIAPWKAEEKEQSEKLHRKLQGLALVHPLPDELRKLIAWDMFLKPNQVAFVHVMHYLFRLLDPAEFKRRFFWPITDKKSEANFRSSTVEYLKHLNEKHQLHWANIKSYLVVMPGGMRFINFLLEFVGFVIQELIKQREKSLGLEAGTPNVSAKVMARQNAVMKEYASSYVVNLEENTALLRDKTQKIRRLMADLSADMGVPEEQLADDGFLDEFEATAALGVERVITQPTERKFDLEASLCGLKEAIDLFQVKQAENNQSKEAVEKALRGMRVLFDCDAVTEGDFYDPLGASKMDALLNGFNRISGTIAEQLDANDHYNESNAFVTTDLQALRVELSQSEVQLNNLLKKLNEPSKKDKGSANASGSARVQTLQPATPRFESVISSKFVSTPPIRIDMGGGGGRNAPVRLALQDDFNGKQFDALSNSLLAPAPPRSARKLKALDQSTGIDLNGTLNRSKINDPMQMLRTIHKNTSKVKAAPQANLSSLGSKWKQMQASFGFDEAPVPGAAVISPQTSPTDPSDPFTPLSGSECTRIERIPRTSENNTSLIAKSAAVIKVLEVSRNVLNLSTSPSGRLDALVPHTESHQQDVAPRLQLNDRTINDSLQLDPDFNIENDKNAFNVSHKFDFDQIGGEDDLQNISDSVLKDIIF
chain 3: METNVDFSSISSKLYRKYAQHVRNLKDVCVSKTVMKPGAFFDSLQQMMEEEAAATTPPRDLSSVADYAELFKTLEEYPANNSTLLRGADESVAMGINTSNVSLSLTRLEEQRSAVDVYNDFKGFQRKLAKIYDEAAALDTTESIYKQKLTQLHGFAQQLEKLMPTGGESPPDAFTSEQQEKLLTIAANMEQLNYLRSNSLQLPNPNEILATGSLAARLEMFVEVLTYTLLQVSSYNMAMI
chain 4: METPPTPTTTTPPSLTTEGTMDDIQYLLHLEAMRRFQEDSRNVKRQVEEQVRIWLDAKCEYQRDFGRLARLLKCGALQAAVDAHRVSDVNQVDQAAKDIASLRSKLGSDLRPAILDSNDVKQCLEHLNTTHKPRLNLCRQQREFAQNQEALRSLRTAVDGLENGMEMGMIQAMDRLVEDLLPPRETNN
B3: D. melanogaster augmin N-clamp, wild type (Msd1, Dgt6, Msd5-EGFP-HIS8, Dgt4-HIS8) (complex)
chain 1: MSDAVDKMLAGMAANRQTMNRQLAKIDEIMERSNNTLLHIESNSKAFSQNVALSETQKMYNLRPEAEMTLSKILENFKLLMSSSDQREETYSALEGCLAYRHRVEHLGSSVRKLVALYDTVGQMKNSQEEQYASEDSP
chain 2: MDRTIIAPWKAEEKEQSEKLHRKLQGLALVHPLPDELRKLIAWDMFLKPNQVAFVHVMHYLFRLLDPAEFKRRFFWPITDKKSEANFRSSTVEYLKHLNEKHQLHWANIKSYLVVMPGGMRFINFLLEFVGFVIQELIKQREKSLGLEAGTPNVSAKVMARQNAVMKEYASSYVVNLEENTALLRDKTQKIRRLMADLSADMGVPEEQLADDGFLDEFEATAALGVERVITQPTERKFDLEASLCGLKEAIDLFQVKQAENNQSKEAVEKALRGMRVLFDCDAVTEGDFYDPLGASKMDALLNGFNRISGTIAEQLDANDHYNESNAFVTTDLQALRVELSQSEVQLNNLLKKLNEPSKKDKGSANASGSARVQTLQPATPRFESVISSKFVSTPPIRIDMGGGGGRNAPVRLALQDDFNGKQFDALSNSLLAPAPPRSARKLKALDQSTGIDLNGTLNRSKINDPMQMLRTIHKNTSKVKAAPQANLSSLGSKWKQMQASFGFDEAPVPGAAVISPQTSPTDPSDPFTPLSGSECTRIERIPRTSENNTSLIAKSAAVIKVLEVSRNVLNLSTSPSGRLDALVPHTESHQQDVAPRLQLNDRTINDSLQLDPDFNIENDKNAFNVSHKFDFDQIGGEDDLQNISDSVLKDIIF
chain 3: METNVDFSSISSKLYRKYAQHVRNLKDVCVSKTVMKPGAFFDSLQQMMEEEAAATTPPRDLSSVADYAELFKTLEEYPANLQKMPKKRELQRTNSTLLRGADESVAMGINTSNVSLSLTRLEEQRSAVDVYNDFKGFQRKLAKIYDEAAALDTTESIYKQKLTQLHGFAQQLEKLMPTGGESPPDAFTSEQQEKLLTIAANMEQLNYLRSNSLQLPNPNEILATGSLAARLEMFVEVLTYTLLQVSSYNMAMI
chain 4: METPPTPTTTTPPSLTTEGTMDDIQYLLHLEAMRRFQEDSRNVKRQVEEQVRIWLDAKCEYQRDFGRLARLLKCGALQAAVDAHRVSDVNQVDQAAKDIASLRSKLGSDLRPAILDSNDVKQCLEHLNTTHKPRLNLCRQQREFAQNQEALRSLRTAVDGLENGMEMGMIQAMDRLVEDLLPPRETNN

What follows are binders tested against Taxol-stabilized microtubules polymerised from purified porcine brain tubulin (porcine) (UniProt P02550) (assay: co-sedimentation; tubulin co-sedimentation: taxol-stabilized MTs (varied, α/β-tubulin heterodimer molarity) with 1 µM purified N-clamp, 0.25 mg/ml BSA, BRB80-MT buffer (80 mM PIPES, 1 mM MgCl2, 1 mM EGTA, 12.5% glycerol, pH 6.8), 20 min at room temperature, 200,000 g 10 min 27 °C; SDS-PAGE densitometry of pellet; apparent Kd from a quadratic fit).
B1 gave a Kd of 25500 nM. With B2 the Kd was 1000 nM. In the case of B3, the Kd is reported as 400 nM.
